Data reported in patent US20230051304A1 (Regeneron, published 2023).
Read-outs that look alike come from different tables or passages of the source.

Experiments:
Experiment in all cases: cell-based or functional assay
[1] = target: murine IL12 receptor complex (IL12Rβ1 and IL12Rβ2) (mouse) (UniProt Q60837)
[2] = target: murine IL12 receptor complex (IL12Rβ1 and IL12Rβ2) (mouse) (UniProt Q60837); remark: listed apart in the source
[3] = target: murine IL12 receptor complex (IL12Rβ1 and IL12Rβ2) (mouse) (UniProt Q60837); remark: listed apart in the source

Sequence of murine IL12 receptor complex (IL12Rβ1 and IL12Rβ2) (mouse) (Q60837 20-738, chain 1 of 2): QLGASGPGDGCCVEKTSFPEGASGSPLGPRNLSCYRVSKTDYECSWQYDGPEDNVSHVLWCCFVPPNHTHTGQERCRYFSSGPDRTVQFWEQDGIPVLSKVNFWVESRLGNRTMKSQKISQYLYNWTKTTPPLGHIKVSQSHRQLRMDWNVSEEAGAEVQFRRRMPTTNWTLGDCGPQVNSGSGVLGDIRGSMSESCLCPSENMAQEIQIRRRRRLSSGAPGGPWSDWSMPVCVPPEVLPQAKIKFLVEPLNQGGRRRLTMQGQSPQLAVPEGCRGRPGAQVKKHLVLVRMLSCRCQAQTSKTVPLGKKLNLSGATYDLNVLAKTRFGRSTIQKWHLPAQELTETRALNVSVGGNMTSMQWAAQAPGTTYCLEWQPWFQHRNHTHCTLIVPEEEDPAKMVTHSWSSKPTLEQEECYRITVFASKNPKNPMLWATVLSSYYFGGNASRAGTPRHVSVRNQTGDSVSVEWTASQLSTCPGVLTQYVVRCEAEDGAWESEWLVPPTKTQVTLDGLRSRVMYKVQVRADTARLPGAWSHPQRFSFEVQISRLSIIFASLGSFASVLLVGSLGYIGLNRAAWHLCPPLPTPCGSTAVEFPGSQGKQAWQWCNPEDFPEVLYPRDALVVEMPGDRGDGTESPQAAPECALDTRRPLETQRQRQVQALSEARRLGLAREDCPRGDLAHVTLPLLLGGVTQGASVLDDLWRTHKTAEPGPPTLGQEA
Sequence of murine IL12 receptor complex (IL12Rβ1 and IL12Rβ2) (mouse) (P97378 24-874, chain 2 of 2, further chain): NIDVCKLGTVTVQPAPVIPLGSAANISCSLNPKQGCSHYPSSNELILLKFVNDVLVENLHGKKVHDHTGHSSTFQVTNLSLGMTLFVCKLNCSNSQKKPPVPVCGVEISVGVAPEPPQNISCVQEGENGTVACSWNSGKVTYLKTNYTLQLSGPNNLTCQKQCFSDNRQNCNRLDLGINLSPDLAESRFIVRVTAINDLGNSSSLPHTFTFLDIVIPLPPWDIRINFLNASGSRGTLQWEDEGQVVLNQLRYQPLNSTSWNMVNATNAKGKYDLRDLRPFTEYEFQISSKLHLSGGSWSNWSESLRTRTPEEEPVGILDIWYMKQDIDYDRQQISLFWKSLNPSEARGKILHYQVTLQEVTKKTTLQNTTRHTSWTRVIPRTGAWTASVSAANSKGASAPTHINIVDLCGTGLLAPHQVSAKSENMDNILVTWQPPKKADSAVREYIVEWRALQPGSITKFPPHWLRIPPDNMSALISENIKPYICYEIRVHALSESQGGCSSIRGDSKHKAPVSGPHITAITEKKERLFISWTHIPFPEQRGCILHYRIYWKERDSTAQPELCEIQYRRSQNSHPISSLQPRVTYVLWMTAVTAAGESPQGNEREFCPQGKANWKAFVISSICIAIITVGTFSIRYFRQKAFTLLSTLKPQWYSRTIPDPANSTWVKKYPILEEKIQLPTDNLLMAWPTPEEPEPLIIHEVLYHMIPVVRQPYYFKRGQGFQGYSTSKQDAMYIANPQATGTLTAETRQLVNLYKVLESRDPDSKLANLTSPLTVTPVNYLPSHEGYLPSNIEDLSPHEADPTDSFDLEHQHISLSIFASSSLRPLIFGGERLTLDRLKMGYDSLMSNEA

EC50 (M); STAT3-Luc reporter, CTLL2/STAT3-Luc cells [1]: 5.56e-11 M | Fold induction at 6.25 nM; STAT3-Luc reporter, CTLL2/STAT3-Luc cells [1]: 12.2 fold | Max fold induction; STAT3-Luc reporter, CTLL2/STAT3-Luc cells [1]: 12.4 fold | EC50 (M); STAT3-Luc reporter, CTLL2/STAT3-Luc cells [2]: 3.46e-11 M | Fold induction at 20 nM; STAT3-Luc reporter, CTLL2/STAT3-Luc cells [2]: 18.8 fold | Max fold induction; STAT3-Luc reporter, CTLL2/STAT3-Luc cells [2]: 19.1 fold | EC50 (M); STAT3-Luc reporter, CTLL2/STAT3-Luc cells [3]: 3.71e-10 M | Max fold induction; STAT3-Luc reporter, CTLL2/STAT3-Luc cells [3]: 17.8 fold
B1: recombinant mIL12 (ligand, mouse)
chain 1: RVIPVSGPARCLSQSRNLLKTTDDMVKTAREKLKHYSCTAEDIDHEDITRDQTSTLKTCLPLELHKNESCLATRETSSTTRGSCLPPQKTSLMMTLCLGSIYEDLKMYQTEFQAINAALQNHNHQQIILDKGMLVAIDELMQSLNHNGETLRQKPPVGEADPYRVKMKLCILLHAFSTRVVTINRVMGYLSSA
chain 2: MWELEKDVYVVEVDWTPDAPGETVNLTCDTPEEDDITWTSDQRHGVIGSGKTLTITVKEFLDAGQYTCHKGGETLSHSHLLLHKKENGIWSTEILKNFKNKTFLKCEAPNYSGRFTCSWLVQRNMDLKFNIKSSSSSPDSRAVTCGMASLSAEKVTLDQRDYEKYSVSCQEDVTCPTAEETLPIELALEARQQNKYENYSTSFFIRDIIKPDPPKNLQMKPLKNSQVEVSWEYPDSWSTPHSYFSLKFFVRIQRKKEKMKETEEGCNQKGAFLVEKTSTEVQCKGGNVCVQAQDRYYNSSCSKWACVPCRVRS
